Test results: patent US7297508 (Takeda / Millennium, dated 2007)

Biological target: the molecule itself
Test: X-ray crystal structure of apo FAPα (SEQ ID NO:3), homodimer

B1: FAPα (SEQ ID NO:3), secreted recombinant human fibroblast activation protein alpha, residues 27-760 of SEQ ID NO:1 with part of the gp67 signal sequence at the … (enzyme)
chain: ADPGRPSRVHNSEENTMRALTLKDILNGTFSYKTFFPNWISGQEYLHQSADNNIVLYNIETGQSYTILSNRTMKSVNASNYGLSPDRQFVYLESDYSKLWRYSYTATYYIYDLSNGEFVRGNELPRPIQYLCWSPVGSKLAYVYQNNIYLKQRPGDPPFQITFNGRENKIFNGIPDWVYEEEMLATKYALWWSPNGKFLAYAEFNDTDIPVIAYSYYGDEQYPRTINIPYPKAGAKNPVVRIFIIDTTYPAYVGPQEVPVPAMIASSDYYFSWLTWVTDERVCLQWLKRVQNVSVLSICDFREDWQTWDCPKTQEHIEESRTGWAGGFFVSTPVFSYDAISYYKIFSDKDGYKHIHYIKDTVENAIQITSGKWEAINIFRVTQDSLFYSSNEFEEYPGRRNIYRISIGSYPPSKKCVTCHLRKERCQYYTASFSDYAKYYALVCYGPGIPISTLHDGRTDQEIKILEENKELENALKNIQLPKEEIKKLEVDEITLWYKMILPPQFDRSKKYPLLIQVYGGPCSQSVRSVFAVNWISYLASKEGMVIALVDGRGTAFQGDKLLYAVYRKLGVYEVEDQITAVRKFIEMGFIDEKRIAIWGWSYGGYVSSLALASGTGLFKCGIAVAPVSSWEYYASVYTERFMGLPTKDDNLEHYKNSTVMARAEYFRNVDYLLIHGTADDNVHFQNSAQIAKALVNAQVDFQAMWYSDQNHGLSGLSTNHLYTHMTHFLKQCFSLSDHHHHHH
modifications: three Asn residues (chain A) or five Asn residues (chain B) carry covalently linked sugar molecules; positions not given
notes: Only residues 39-757 are seen in the structure; Expressed in Hi5 insect cells; also called Seprase; apo FAPα
Question: Does B1 bind?
Answer: Result: binds
